Experimental data from the DeepSol protein solubility set.

test: soluble on expression in E. coli; label from the status in PepcDB or PDB records

Row | Sequence | soluble on expression in E. coli
1 | MNDNEIGNPPIKALIVFRENGDTDNLFVPILCDAIRTTGIDVRCSTNEFWNSDTPYDIIHFQWPEEVMEGNCDDPDRICRLKECIAFFRSRGARFVYTRHNVRPHDANEVIGRAYDIIEEQSDVVVHMGRYSLDEFAAKHADSRNVIIPHPIYQYTYKEDISVERARQYLNLPQEAFIVTSFGKFRNREERRMVTGAFRKWDEAKKFLLAPRLYPFSRFNRYGSNFFKRWTSRAGYYLLIPLLNRLRRMHAGASDEPIDNCDLPYYMAASDVIFIQRKDILNSASIPLAFLFHKVVIGPNIGNIGEILQDTGNPVFHPDNQFDIIRALEAARQLSARRKGEDNYAYAIENMNSGKIGKEYAELYRNLANLSL | not soluble
2 | KKPDTLWVNKRVVKCPEEVAQQLAVEAGSDVFLLKRIRYVDEEAVSIEESWVPAHLIHDVDAIGISLYDYFRSQHIYPQRTRSRVSARMPDAEFQSHIQLDSKIPVLVIKQVALDQQQRPIEYSISHCR | not soluble
3 | QPPAPRMIADGYQLLSELGALDERKGLTQIGHQLARFPTDPRIARMIMAAKQENCLSEVLIIAAALSLQDPRDRPFEHQQAADQAHQPFRDDR | not soluble
4 | MTCTTEIDILKWTVRYCSSLAAHLLTPTRLFKYEIQQQSDLRNATENKTEKYISDDVGHCRHTYMQIR | soluble
5 | MQFLQNIPPYLFFTGKGGVGKTSISCATAIRLAEQGKRVLLVSTDPASNVGQVFSQTIGNTIQAIASVPGLSALEIDPQAAAQQYRARIVDPIKGVLPDDVVSSINEQLSGACTTEIAAFDEFTGLLTDASLLTRFDHIIFDTAPTGHTIRLLQLPGAWSSFIDSNPEGASCLGPMAGLEKQREQYAYAVEALSDPKRTRLVLVARLQKSTLQEVARTHLELAAIGLKNQYLVINGVLPKTEAANDTLAAAIWEREQEALANLPADLAGLPTDTLFLQPVNMVGVSALSRLLSTQPVASPSSDEYLQQRPDIPSLSALVDDIARNEHGLIMLMGKGGVGKTTMAAAIAVRLADMGFDVHLTTSDPAAHLSMTLNGSLNNLQVSRIDPHEETERYRQHVLETKGKELDEAGKRLLEEDLRSPCTEEIAVFQAFSRVIREAGKRFVVMDTAPTGHTLLLLDATGAYHREIAKKMGEKGHFTTPMMLLQDPERTKVLLVTLPETTPVLEAANLQADLERAGIHPWGWIINNSLSIADTRSPLLRMRAQQELPQIESVKRQHASRVALVPVLASEPTGIDKLKQLAGHHHHHH | soluble
6 | MSLSVKIVIKPNTYFDSVSLMSISTRANKLDGVEQAFVAMATEMNKGVLKNLGLLTPELEQAKNGDLMIVINGKSGADNEQLLVEIEELFNTKAQSGSHEARYATIGSAKKHIPESNLAVISVNGLFAAREARQALQNDLNVMLFSDNVSVEDELALKQLAHEKGLLMMGPDCGTAIINGAALCFGNAVRRGNIGIVGASGTGSQELSVRIHEFGGGVSQLIGTGGRDLSEKIGGLMMLDAIGMLENDPQTEIIALISKPPAPAVARKVLERARACRKPVVVCFLDRGETPVDEQGLQFARGTKEAALKAVMLSGVKQENLDLHTLNQPLIADVRARLQPQQKYIRGLFCGGTLCDETMFAVMEKHGDVYSNIQPDPEFRLKDINRSIKHTFLDFGDDDFTNGKPHPMIDPTNRISRLIEEARDPEVAVIVMDFVLGFGSHEDPVGSTIETIKEAKAIAAAEGRELIILAYVLGTDLDTPSLEQQSQMLLDAGVILASSSTNTGLLAREFICKGEEGHHHHHH | soluble
7 | MGSDKIHHHHHHMNTRILNALKQTTLIEEKQKASHCFVEDMPPYAINQELSLKEHGRVLSNYFFKNKDIYISRHNRYADYPTHTHTFLEMNYMLQGHATEIVDDKKITLNTGDLLLLDEGSTHSIKALGDNDLLINILFRTKNISINLLNDLRRSNNIFYDFLLSQVIEDSNHKRDYLVFTKKRNNEVQETLDRIIDEYYLKRDFSNSIIKSYLSILLVQLVREYPLNGPHQENKSSLLAIKVLKAIAEEYKTVSLEELANRYNYNKNYLSNIFKSEVGQTFSEVLTRQRLIQAHTLIASTSLPIATIMEQVGIKNKTFFYQKYKNYYKTLPSTDR | not soluble
8 | MSHQIRSKKTLWELVGRNKDALRDFLKEHRGTILLRDIASEHKVVYKPIFKRYNGDPDLIEDNSNDVEHWYDYHLERYWNTPELKKEFYKKFGPVDLNQPIILAKPLRQHNRGDLVHLLPQFVVPVYN | soluble
9 | MGSDKIHHHHHHMMPNPLLDIRIGTMVRANLEDPAAYVRQILPLGFESIQPFFWQTLGGKDLPRLAGEIREAIGDADVVVSSLGVFGNPLESGEVDRGVLAAWETVIDNAHLFGASMVSGFTGRLRGKKLTDSLPRFREVWGPLAKRAADKGVRIAFENCAMDGNWAVGDWNIAHNPDAWELMFNELPDDNLGLEWEPCHQLVYLIDPIPQIRKWAPRIFHVHGKDATVRWDVIREHGVFGRLPFVQMRTPGFGDSDWTRVISELRLAGYKGAIDIEGWHDPVYRDDLEITGQARALEYLKQCRGGASYLQNPT | not soluble
10 | MAHHHHHHMSATRDGSRSHSDGGFDGRSLLSEQTKLLRESTPADINFIQFLKLRLSAQQRATAQRNYWQRVQREAADSMNANTAHRQGRGGISASVAPVSTSAAGRESEASSNHIGSGRRNWHAAGSAEGASFSTYDAEHMMLEHSTASFGTLSKQDAFTRATSHGAVPPPTVHQHSFEDLRAAVLKRRSTPASELTDFVAVSTAELSEDGNSSQRRPSGPLQEEDAYALAPFIASSYSAAAAAAIDERPAMACGKPQVPVDVDEMKDVALEPCPHCGRTFAPARLERHVVTCERHRNTLPKTKGDMKSCRAFSSRKKPDRTAGGDGAAASAAATANTAGAAPGGPLRWSTDTAIKPEKWRKQSAQLRNAMAGASVAVDDDRVLCPSCGRHFSDDVAARHIPICKSKGGRAA | not soluble
11 | MEFKNTKKDRLSDLENRFENANKHETNKHEKEDRKKAHTLYISEKVMNSVEEYLNEFGAFRENKSVFVQDAIIFYLEYKKKEMKQMLLDKASKL | not soluble
12 | MTKPLILASQSPRRKELLDLLQLPYSIIVSEVEEKLNRNFSPEENVQWLAKQKAKAVADLHPHAIVIGADTMVCLDGECLGKPQDQEEAASMLRRLSGRSHSVITAVSIQAENHSETFYDKTEVAFWSLSEEEIWTYIETKEPMDKAGAYGIQGRGALFVKKIDGDYYSVMGLPISKTMRALRHFDIRA | soluble
13 | WKTTLKLTLDNVVKLEKLKPLVEDFYREFEFAELQINMEVFNGSWEAIAQGRADIVVGATSAVPVGGDFEVKDMGVLDWAFVMSPAHPCVRQQVLTEEFVSQFPAICLDDTSNVLPKRHTGHYAKQRRLLLPNWYSAIECLKNGVGVGYMPRHIAMPLIHEGVLVEKLLQDDKPLSRCCLVWRKDDDHKLIQWMVDYLGSPNQLHQDWLQC | soluble
14 | MSLYHYFRPAQRSVFGDLMRDMAQMERQFTPVCRGSPSESSEIVNNDQKFAINLNVSQFKPEDLKINLDGHTLSIQGEQELKTEHGYSKKSFSRVILLPEDVDVGAVASNLSEDGKLSIEAPKKEAIQGRSIPIQQAPVEQKTSE | not soluble
15 | MSLVLQMKSGGVVSDARTELDTQRLAKYIGGKHALVAQGGGQRGIFTAGVLDAFLLSNFDPYHEFYGTSAGALNLCAFLSRQTGLSKAFILELTTRAEFFHLFSYIRRKQYMNMQWALDRIGEYPYRLDLDMARQALGKRKAYAAVTSADDLKDAYFPMLGADWQQVLLATCAIPGLYPEPVTLAGKQYIDGGVSASIPVQEAWRKEARFITVIRTEFMSKEEETPSPSATELPLWLREPLNHLQHQLQHKWSGWRQEWNEFLQQQKLRAKEQKKEQKHLDALNGGRWLFGADDIYRLSHLLGSKFDAGLADLLMVHYQTYTLTSEFLDAHHDDTFIAQIMPSEPLHSNSLLSSPEALQYDYELGLKAGYRFLKAYSEAETFRKEGHHHHHH | soluble
16 | QGHMRVEVFPVEGLPLIKEGDDLAELISSRVRFEDGDVLVVCSTVISKAEGRIRRLEEFNPSERAKEIAARIGKPAEFVQAVLEESEEVLLDFPFLLVKAKFGNVCVNAGIDASNVEEGSLLLPPLDPDGSAEKLRRRILELTGKRVGVIITDTNGRCFRRGVVGFAIGISGVKAMKDWIGRKDLYGRELEVTVECVADEIAAFANLLMGEGGDGIPAVVVRGLNVAGEGSMEEIYRSEEEDVIRRCLKRCLGS | soluble
17 | SLMKITRIEAIPYAIPYSRPLKFASGEVSTAEHVLVRIHTDAGICGVADTPPRPYTYGETQDSIVSVVTKVFAPQLIGMDPMDRSKVQQLLGRTVNNPTAKGALDIALWDVIGISLGTPVHKLLGGFSDSMRVSHMLGFKAAAELLEEALRFRETYGIDTFKLKVGRRPLSLDVEACHVLREGLGADTEIYLDANRGWTANEAMEVLRRTEGLGLSMLEEPCDAAEAMGRRRLVQHSSIPIVGDESVPNLGDVSRELLSGGSNAICIKTARSGFTEAQQILGLCEGLGVDVTMGNQIDTQVGSLATVTFGAAFEASSRRAGELSNYLDMTDDLLAEPLEITDGAIRVRKAPGVGAAIDADKLQKY | not soluble
18 | MGSDKIHHHHHHMTLSITSNFDAGAIDVVSCERADAIRLRVRGDNRSEFAQWFYFRLTGARGERCVMTFENANDCAYPAGWRDYRAVASYDRVNWFRVPTSYDGQMLTIDHTPEFDSIHYAYFEPYSEERHSEFLGAVQQMPQASVVELGRTVEGRPMSLVVLGTPDEAGAAKKKVWIIARQHPGESMAEWFIEGLVKRLVGWGDWSGDPVARKLYDHATFYIVPNMNPDGSVHGNLRTNAAGANLNREWMEPDAERSPEVLVVRDAIHAIGCDLFFDIHGDEDLPYVFAAGSEMLPGFTEQQRVEQSAFIDSFKRASPDFQDEHGYPPGKYREDAFKLASKYIGHRFGCLSLTLEMPFKDNANLPDEHIGWNGARSASLGAAMLGAILEHVRAFA | not soluble
19 | MAGRKKTTACKLFVLDTNVLLHDPTCLYRFEEHDVFIPIITLEELDTHKKGMSEVARNARQASRFLDDIISGNELNISEGIPLKHASRDAASGKLILQTQAINGTLPSSLPMGKADNQILGIVMALKSHYQGRAVILVSKDINMRIKARALGLEAEDYFNDKVLEDTDVL | not soluble
20 | MNLSFKIFDISNTQRSKAKKVQGKKYEIFLNENEHSLITPKVSFKEILRYYYLYPKNAIPSFKLPFFKPDLSGFSTPHITWLGHSSLFISFKEYKILIDPIFNTHASPISFINKAFKNAPVYNINDFNEIFAVIITHSHFDHLDAKSVKALKDKAKFFITPLKVGNYLKSYGVSEKKIIELDWWSGIEFGDLKIMATPAQHSSSRGDGKNKTLWASFVMEFLSVDKRVFFSADGGYFTHFKKIGEYFGSFDLACLESGQFNIAWPYSHSFPEQILKEAKDLNAKAVMPIHWGRFLAGTHAWNEVVKFLYENLDLPLITPKMGEAYEVGAKFKQDFWWKEELEHHHHHH | not soluble
21 | MTDDKDVLRDVWFGRIPTCFTLYQDEITEREAEPYYLLLPRVSYLTLVTDKVKKHFQKVMRQEDVSEIWFEYEGTPLKWHYPIGLLFDLLASSSALPWNITVHFKSFPEKDLLHCPCKDAVEAHFMSCVKEADALKHKSQVINEMQRKDHKQLWMGLQNDLTSFGPSTGNSWNTLQKKMDFVISLLEYIRPQLNGLSFRSCSVLWPQMDSCIPLEIS | not soluble
